From the Immune Epitope Database (IEDB)

Tests used:
HLA-A*24:02 [1] = experiment: IEDB peptide-MHC binding, purified MHC/competitive/fluorescence; ≥ and ≤ were set here for values at or beyond the usual limits of such assays
HLA-B*08:01 [2] = experiment: as above
HLA-A*80:01 = experiment: IEDB peptide-MHC binding, purified MHC/direct/fluorescence; filed as Kd, often an IC50 or EC50 that approximates it; ≥ and ≤ were set here for values at or beyond the usual limits of such assays
HLA-A*01:01 [3] = experiment: IEDB peptide-MHC binding, purified MHC/competitive/fluorescence; filed as Kd, often an IC50 or EC50 that approximates it; ≥ and ≤ were set here for values at or beyond the usual limits of such assays; details: source organism: Human immunodeficiency virus type 1 BH10
HLA-A*29:02 [4] = experiment: as above; details: source organism: Human immunodeficiency virus type 1 BH10
HLA-A*02:01 [5] = experiment: IEDB peptide-MHC binding, purified MHC/competitive/fluorescence; ≥ and ≤ were set here for values at or beyond the usual limits of such assays; details: source organism: Zaire ebolavirus
HLA-B*15:01 [6] = experiment: as above; details: source organism: Zaire ebolavirus
HLA-A*24:02 [7] = experiment: IEDB peptide-MHC binding, purified MHC/competitive/fluorescence; filed as Kd, often an IC50 or EC50 that approximates it; ≥ and ≤ were set here for values at or beyond the usual limits of such assays
HLA-A*01:01 [8] = experiment: IEDB peptide-MHC binding, purified MHC/direct/fluorescence; filed as Kd, often an IC50 or EC50 that approximates it; ≥ and ≤ were set here for values at or beyond the usual limits of such assays
HLA-A*02:01 [9] = experiment: as above
HLA-A*03:01 = experiment: as above
HLA-A*11:01 = experiment: as above
HLA-A*29:02 [10] = experiment: as above; details: source organism: Influenza A virus (A/Hong Kong/507/97(H5N1))
HLA-B*08:03 = experiment: as above
HLA-B*15:01 [11] = experiment: as above
HLA-B*18:01 = experiment: as above
HLA-B*27:05 = experiment: as above
HLA-B*40:01 = experiment: as above
HLA-B*44:02 = experiment: as above
HLA-B*46:01 [12] = experiment: as above
HLA-B*58:01 = experiment: as above
HLA-B*08:01 [13] = experiment: IEDB peptide-MHC binding, purified MHC/competitive/fluorescence; filed as Kd, often an IC50 or EC50 that approximates it; ≥ and ≤ were set here for values at or beyond the usual limits of such assays; details: source organism: Influenza A virus (A/X-31(H3N2))
HLA-B*51:01 = experiment: as above; details: source organism: Influenza A virus (A/X-31(H3N2))
HLA-A*02:03 = experiment: IEDB peptide-MHC binding, purified MHC/direct/fluorescence; filed as Kd, often an IC50 or EC50 that approximates it; ≥ and ≤ were set here for values at or beyond the usual limits of such assays
HLA-A*02:06 = experiment: as above
HLA-A*02:11 = experiment: as above
HLA-A*02:12 = experiment: as above
HLA-A*02:19 = experiment: as above
HLA-A*31:01 = experiment: as above
HLA-B*07:02 = experiment: as above
HLA-C*05:01 = experiment: as above; details: source organism: Brucella melitensis bv. 1 str. 16M
HLA-A*02:16 = experiment: as above; details: source organism: Brucella suis 1330
HLA-A*69:01 = experiment: as above
HLA-A*68:02 = experiment: as above; details: source organism: Campylobacter jejuni RM1221
HLA-B*15:17 = experiment: as above; details: source organism: Campylobacter jejuni RM1221
HLA-B*48:01 = experiment: as above; details: source organism: Campylobacter jejuni RM1221
HLA-B*57:01 = experiment: as above; details: source organism: Campylobacter jejuni RM1221
HLA-A*24:02 [14] = experiment: as above; details: source organism: Vibrio cholerae
HLA-A*26:01 = experiment: as above; details: source organism: Vibrio vulnificus YJ016
HLA-B*08:01 [15] = experiment: as above; details: source organism: Vibrio vulnificus YJ016
HLA-B*35:01 = experiment: IEDB peptide-MHC binding, purified MHC/competitive/fluorescence; filed as Kd, often an IC50 or EC50 that approximates it; ≥ and ≤ were set here for values at or beyond the usual limits of such assays; details: source organism: Mopeia Lassa virus reassortant 29
HLA-B*46:01 [16] = experiment: as above; details: source organism: Mopeia Lassa virus reassortant 29
HLA-C*06:02 = experiment: IEDB peptide-MHC binding, purified MHC/direct/fluorescence; filed as Kd, often an IC50 or EC50 that approximates it; ≥ and ≤ were set here for values at or beyond the usual limits of such assays; details: source organism: Listeria monocytogenes J0161
[17] = source organism: Vaccinia virus
[18] = source organism: Vaccinia virus Copenhagen
[19] = source organism: Zaire ebolavirus
[20] = source organism: Influenza A virus (A/Hong Kong/507/97(H5N1))
[21] = source organism: Brucella abortus
[22] = source organism: Brucella suis ATCC 23445
[23] = source organism: Brucella suis 1330
[24] = source organism: Campylobacter jejuni RM1221
[25] = source organism: Vibrio cholerae
[26] = source organism: Vibrio vulnificus YJ016
[27] = source organism: Mammarenavirus lassaense

FKPPKFRAF showed an IC50 (HLA-A*24:02 [1]; [17]) of 52.6 µM and an IC50 (HLA-B*08:01 [2]; [17]) of at least 191 µM.
FNCGGEFFY gave a Kd (HLA-A*80:01; source organism: Human immunodeficiency virus 1) of 0.0526 µM, a Kd (HLA-A*01:01 [3]) of 0.0565 µM and a Kd (HLA-A*29:02 [4]) of at most 0.0001 µM.
In the case of GNIKHKERI, the IC50 (HLA-A*24:02 [1]; [18]) is reported as 47.7 µM and the IC50 (HLA-B*08:01 [2]; [18]) is reported as at least 199 µM.
Work on HMMVIFRLM yielded an IC50 (HLA-A*02:01 [5]) of 0.176 µM, an IC50 (HLA-A*24:02 [1]; [19]) of 0.83 µM and an IC50 (HLA-B*08:01 [2]; [19]) of at least 3440 µM. The IC50 (HLA-B*15:01 [6]) was at least 168 µM.
IFIYSFFTW gave a Kd (HLA-A*24:02 [7]; source organism: Francisella tularensis subsp. holarctica FSC200) of 0.0111 µM.
For LAKSVFNSL, the Kd (HLA-A*01:01 [8]; [20]) was at least 20 µM, the Kd (HLA-A*02:01 [9]; [20]) was at least 20 µM and the Kd (HLA-A*03:01; [20]) was at least 20 µM. For the same sequence, the Kd (HLA-A*11:01; [20]) was at least 20 µM, the Kd (HLA-A*29:02 [10]) was at least 20 µM and the Kd (HLA-B*08:03; source organism: Influenza A virus (A/Taiwan/2/2006(H1N1))) was 2.13 µM. The Kd (HLA-B*15:01 [11]; [20]) was at least 20 µM, the Kd (HLA-B*18:01; [20]) was at least 20 µM and the Kd (HLA-B*27:05; [20]) was at least 20 µM. It also gave a Kd (HLA-B*40:01; [20]) of at least 20 µM, a Kd (HLA-B*44:02; [20]) of at least 20 µM and a Kd (HLA-B*46:01 [12]; [20]) of at least 20 µM. The Kd (HLA-B*58:01; [20]) was at least 20 µM, the Kd (HLA-B*08:01 [13]) was 0.726 µM and the Kd (HLA-B*51:01) was at least 20 µM.
LSDDSGLMV was tested, and the Kd (HLA-A*01:01 [8]; [21]) was 0.0217 µM, the Kd (HLA-A*02:01 [9]; [21]) was 1.05 µM and the Kd (HLA-A*02:03; [22]) was 0.42 µM. The Kd (HLA-A*02:06; [22]) was 0.062 µM, the Kd (HLA-A*02:11; [22]) was 0.071 µM and the Kd (HLA-A*02:12; [22]) was 1.58 µM. For the same sequence, the Kd (HLA-A*02:19; [22]) was at least 20 µM, the Kd (HLA-A*03:01; [21]) was at least 20 µM and the Kd (HLA-A*11:01; [21]) was at least 20 µM. For the same sequence, the Kd (HLA-A*31:01; [21]) was at least 20 µM, the Kd (HLA-B*07:02; [21]) was at least 20 µM and the Kd (HLA-B*15:01 [11]; [21]) was at least 20 µM. For the same sequence, the Kd (HLA-B*27:05; [21]) was at least 20 µM, the Kd (HLA-B*40:01; [21]) was at least 20 µM and the Kd (HLA-B*44:02; [21]) was at least 20 µM. For the same sequence, the Kd (HLA-B*46:01 [12]; [21]) was at least 20 µM, the Kd (HLA-B*58:01; [21]) was at least 20 µM and the Kd (HLA-C*05:01) was 0.007 µM.
In the case of MRDGGSATV, the Kd (HLA-A*02:01 [9]; source organism: Brucella suis) is reported as at least 20 µM, the Kd (HLA-A*02:06; [23]) is reported as at least 10 µM and the Kd (HLA-A*02:12; [23]) is reported as at least 20 µM. For the same sequence, the Kd (HLA-A*02:16) was at least 10 µM, the Kd (HLA-A*02:19; [23]) was at least 20 µM and the Kd (HLA-A*69:01; [23]) was at least 20 µM.
VQKVNPAPK gave a Kd (HLA-A*01:01 [8]; [24]) of at least 20 µM, a Kd (HLA-A*02:01 [9]; [24]) of at least 20 µM and a Kd (HLA-A*03:01; [24]) of 0.476 µM. For the same sequence, the Kd (HLA-A*31:01; [24]) was 0.904 µM, the Kd (HLA-A*68:02) was at least 20 µM and the Kd (HLA-B*07:02; [24]) was at least 20 µM. For the same sequence, the Kd (HLA-B*08:03; source organism: Campylobacter jejuni subsp. jejuni 81116) was at least 20 µM, the Kd (HLA-B*15:01 [11]; [24]) was 1.12 µM and the Kd (HLA-B*15:17) was at least 20 µM. It also gave a Kd (HLA-B*18:01; [24]) of at least 20 µM, a Kd (HLA-B*27:05; [24]) of at least 10 µM and a Kd (HLA-B*40:01; [24]) of at least 20 µM. For the same sequence, the Kd (HLA-B*46:01 [12]; [24]) was at least 20 µM, the Kd (HLA-B*48:01) was at least 20 µM and the Kd (HLA-B*57:01) was at least 20 µM. For the same sequence, the Kd (HLA-B*58:01; [24]) was at least 20 µM.
For VVYKEAKIK, the Kd (HLA-A*01:01 [8]; [25]) was at least 20 µM, the Kd (HLA-A*02:01 [9]; [25]) was 0.978 µM and the Kd (HLA-A*02:03; [26]) was 1.12 µM. The Kd (HLA-A*02:06; [26]) was 0.657 µM, the Kd (HLA-A*02:11; [26]) was 0.868 µM and the Kd (HLA-A*02:12; [26]) was 1.99 µM. The Kd (HLA-A*02:19; [26]) was at least 20 µM, the Kd (HLA-A*03:01; [25]) was 0.313 µM and the Kd (HLA-A*24:02 [14]) was at least 20 µM. The Kd (HLA-A*26:01) was at least 20 µM, the Kd (HLA-A*69:01; [25]) was at least 20 µM and the Kd (HLA-B*07:02; [25]) was at least 20 µM. It also gave a Kd (HLA-B*08:01 [15]) of at least 20 µM, a Kd (HLA-B*15:01 [11]; [25]) of at least 20 µM and a Kd (HLA-B*18:01; [25]) of at least 20 µM. It also gave a Kd (HLA-B*27:05; [25]) of at least 20 µM, a Kd (HLA-B*40:01; [25]) of at least 20 µM and a Kd (HLA-B*44:02; [25]) of at least 20 µM. For the same sequence, the Kd (HLA-B*46:01 [12]; [25]) was at least 20 µM and the Kd (HLA-B*58:01; [25]) was at least 20 µM.
For YQGKFYMPF, the Kd (HLA-A*24:02 [7]; source organism: Yersinia pestis Nepal516) was 0.0003 µM.
Sequence YSQESPQSY has a Kd (HLA-A*01:01 [8]; [27]) of 0.0011 µM, a Kd (HLA-A*80:01; [27]) of at least 20 µM and a Kd (HLA-B*35:01) of 0.044 µM. The Kd (HLA-B*46:01 [16]) was 0.842 µM.
YYVWMVQFF showed a Kd (HLA-C*06:02) of at least 20 µM and a Kd (HLA-A*24:02 [7]; source organism: Listeria monocytogenes J0161) of 0.0002 µM.
